This note sets out measurements from US20150377899A1.

Test [1] addresses natural human Fc region prepared by papain digestion of human monoclonal IgG (Chugai Pharmaceutical Co., Ltd.) (human). In words: SPR Biacore T100, Fc immobilized on CM5, peptide as analyte.
For test [2] the target is unchanged. Kind of test: SPR Biacore T100, Fc immobilized on CM5, Scatchard plot of equilibrium values. For orientation: Surface plasmon resonance follows binding to a sensor surface in real time, without labels.
For test [3] the target is unchanged. Kind of test: SPR, KD compared.
The target is the same in test [4]. Kind of test: SPR Biacore T100, Fc immobilized on CM5, polypeptide as analyte.
The target of test [5] is human Fc region manufactured by Jackson ImmunoResearch Laboratories, Inc. (human). In words: SPR Biacore T100, Fc immobilized on CM5, peptide as analyte.
For test [6] the target is unchanged. In words: SPR, KD compared.

Where only a bound is given, the exact number is not on record here.

For DAAWHLGELVWATYYDPETGTWQPDWLYMTTR [pep14 peptide], the Kd (in general, the constant that tells how readily two partners part at equilibrium) in test [1] came out at 120 nM.

As to DAAWHLGELVWAT [FcIII-Ala peptide], in test [2], the Kd was determined as 42000 nM.

B1: p17-2 peptide (designed binder)
chain: GPGISAFSPGRGVYDPETGTWYDAAWHLGELVWATYYDPETGTWEPDWQRMLGQ
B1 gave a dissociation constant Kd in test [1] of 1.6 nM. In test [3], this molecule yielded a fold improvement in binding affinity against the FcIII-Ala peptide of 26000 fold and a fold improvement in binding affinity against the pep24 peptide of 138 fold.

B2: p17_D47A (designed binder)
chain: GPGISAFSPGRGVYDPETGTWYDAAWHLGELVWATYYDPETGTWEPAWQRMLGQ
Take B2: the Kd in test [4] came to 45 nM. This lies in the double-digit nanomolar range.

B3: p17_M51A (designed binder)
chain: GPGISAFSPGRGVYDPETGTWYDAAWHLGELVWATYYDPETGTWEPDWQRALGQ
As to B3, the equilibrium dissociation constant (Kd) in test [4] came to 180 nM. Further, the fold reduction in binding affinity against p17-2 in test [3] was > 100 fold.

B4: p17_W48A (designed binder)
chain: GPGISAFSPGRGVYDPETGTWYDAAWHLGELVWATYYDPETGTWEPDAQRMLGQ
In test [4], B4 displayed a Kd of 200 nM. Moreover, in test [3], the fold reduction in binding affinity against p17-2 was > 100 fold.

B5: p17_P46A (designed binder)
chain: GPGISAFSPGRGVYDPETGTWYDAAWHLGELVWATYYDPETGTWEADWQRMLGQ
For the molecule B5, the Kd in test [4] was determined as 5.6 nM. This lies in the single-digit nanomolar range.

B6: p17_R50A (designed binder)
chain: GPGISAFSPGRGVYDPETGTWYDAAWHLGELVWATYYDPETGTWEPDWQAMLGQ
Regarding B6, the Kd in test [4] stood at 7.8 nM.

In the case of DAAWHLGELVWATYYDPETGTWAPDWRLMQGQ [pep11 peptide], the Kd in test [1] worked out at 510 nM.

In turn, DAAWHLGELVWATYYDPETGTWEPDWQRMLGQ [pep24 peptide] displayed a fold higher affinity against the particular sequence (FcIII-Ala) in test [3] of 190 fold.

In the case of GVVRQWSGGGGSGGGGRSSIAYGGG [2A1Gly peptide], the Kd in test [5] amounted to 23000 nM. Further, the binding affinity as a fraction of that of the 2A1 peptide in test [6] is < 0.001.

As for DAAWHLGELVWATYYDPETGTWLPDWQTMAQK [pep21 peptide], the dissociation constant (Kd) in test [1] stood at 100 nM. Besides, in test [3], the fold improvement in affinity against the FcIII-Ala peptide turned out to be 420 fold.
